# Ends that are not written are not given here.
# Legend:
# MEK1 (h) (human) = MEK1 (h) (human) (UniProt Q02750); assay: cell-based or functional assay
# human ERK2 (human) = human ERK2 (human) (UniProt P28482); assay: cell-based or functional assay
# Sequence of human ERK2 (human) (P28482 whole entry): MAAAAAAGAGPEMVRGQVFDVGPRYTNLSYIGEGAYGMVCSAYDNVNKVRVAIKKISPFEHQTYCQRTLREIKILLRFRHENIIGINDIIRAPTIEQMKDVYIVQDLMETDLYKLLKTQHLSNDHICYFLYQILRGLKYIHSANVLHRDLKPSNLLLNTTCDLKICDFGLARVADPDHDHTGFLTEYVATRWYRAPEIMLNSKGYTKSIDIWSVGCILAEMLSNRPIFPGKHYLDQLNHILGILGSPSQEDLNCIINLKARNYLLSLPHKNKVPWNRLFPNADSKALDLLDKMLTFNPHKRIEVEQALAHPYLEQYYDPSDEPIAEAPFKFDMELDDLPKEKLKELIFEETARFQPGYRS
binder,measurement,setting,value
"RSRARNPLYR (peptide, part only, also: 10 copies on 10-mer dendrimer framework) [peptide dendrimer Dend 10β5 presenting 10 monomer units of the β5 integrin derived peptide …]","% inhibition of kinase activity, cell-free assay, dendrimer at 20 µM",MEK1 (h) (human),92 % inhibition
same,"% inhibition of kinase activity, cell-free assay, dendrimer at 20 µM",human ERK2 (human),96 % inhibition

# From patent US20120277161A1, “INHIBITION OF MULTIPLE CELL ACTIVATION PATHWAYS” (INTER-K PTY LIMITED, priority 2009, published 2012)
